Entries after “also recorded” stand apart in the source; their conditions may differ.
How the values were obtained:
Trans-sialidase assay = type: biochemical
Protocol: The trans-sialidase assay was performed as described (Scudder et al., J. Biol. Chem. 268:9886-9891 (1993)) with slight modifications. Various amounts of intact enzyme or enzyme fragments were added to 50 mM PBS, Ph 7.2, containing 15% fetal calf serum and […] of [^14C]N-acetyllactosamine (4×10^5 dpm), 50 μg BSA and 0.02% NaN3 in a volume of 60 μl. After incubation for a predetermined amount of time at room temperature, the reaction mixture was diluted to 1.0 ml with distilled water and applied to a column containing 1.0 ml Q-Sepharose equilibrated with water. Sialylated product was eluted with 1 M NaCi and quantified by scintillation counting.
TS enzymatic activity was measured by the sialylation of the acceptor ^14C-labeled N-acetyllactosamine on anion exchange resins (Scudder, P. et. al., J. Biol. Chem. 268:9886-9891 (1993)). Recombinant TSA-1, was expressed on insect sf9 cells and purified from serum-free medium by ion exchange chromatography (monoQ) and preparative SDS-PAGE (Wrightsman, R. A. et al., J. Immunol., 153:3148-3154 (1994).

[1] = tested on: human bladder carcinoma T-24 cell line; experiment: IL-6 secretion by T-24 carcinoma cells (ELISA); type: cell-based; conditions: 24 hours culture
Protocol: (§1) Primary cultures of human intestinal microvascular endothelial cells (HIMEC) isolated from normal jejunal mucosa/submucosal tissue were prepared as described (Strong et al., Gastroenterology 114: 1244-1256 (1998)). The HIMEC were cultured in fibronectin-coated plasticware in MCDB medium (Sigma) supplemented with 20% FBS, 90 μg/ml heparin and 50 μg/ml endothelial cell growth factor (Sigma). T-24 cells (ATCC Accession No. HTB-4) were cultured in M199 medium supplemented with 10% FBS. PBMC were purified by Ficoll-Paque gradient as described (Current Protocols in Immunology, pp 7.1.1-7.1.2). Vero cells (ATCC Accession No. CCL-81) were grown in RPMI medium with 5% Nu serum and infected with the Silvio X-10/4 of T. cruzi as described previously (Chuenkova et al., J. Exp. Med. 181: 1693-1703, (1995)).
(§2) Endothelial cells and T-24 cells were plated on 24-well plates at a density of 1×10^3 cells/well, while peripheral blood mononuclear cells (PBMC) were plated in the similar wells at 1×10^6/well. Triplicat cultures of cells were incubated test agents for a predetermined amount of time. […] Cytokines and chemokines released in the culture supernatants were measured by ELISA assay following the instructions of the manufacturer (Endogen). The cytokines tested were IL-1β, IL-4, IL-8, IL-10, IL-12, IFN-γ, TNF-α, and the chemokines RANTES and MCP-1. Negative controls were cells incubated in medium containing polymixin B at 10 μg/ml, and positive controls were cells incubated with bacterial LPS at the low ng/ml range (for PBMC or HIMEC) or in the μg/ml range for carcinoma T-24 cells. In some experiments, IL-1β, or TNFα were used as positive control for cytokine release.

[2] = tested on: peripheral blood mononuclear cells (PBMC); experiment: IL-6 secretion by PBMC (ELISA); type: cell-based, human; set-up: IL-6 secretion by PBMC: dose or concentration left out as unconfirmed; conditions: 24 hrs culture
Protocol: as §1, §2
TR peptides (Table 2) were synthesized at the Tufts Synthesis Facility (Boston, Mass.). Each peptide was purified by HPLC, and the number of amino acids and molecular weight of each peptide verified by mass spectrometry. Peptides were dissolved in growth medium (10% FCS in RPMI) and added at various concentrations to 1×10^6 PBMC/well in 24-well plates. After 24 hrs, IL-6 was assayed by ELISA in the conditioned supernatants.

PC12 cells = experiment: Trophic factor withdrawal-induced apoptosis of PC12 cells (DAPI/TUNEL); type: cell-based, rat; conditions: serum-free RPMI-1640/0.2% BSA, 17 hours, DAPI or TUNEL
Description: PC12 cells were obtained from ATCC (Manassas, Va. (Accession No. CRL-1721)) and cultured on collagen-coated dishes in RPMI 1640 supplemented with 10% horse serum and 5% fetal bovine serum (Greene, L. A. and Tishler, A. S., Proc. Natl. Acad. Sci. USA, 73: 2424-2428 (1976)). For differentiation and survival experiments, cells were washed three times in serum-free RPMI/0.2% BSA, plated in the same medium in collagen-coated plastic dishes at 2×10^5/ml, without and with growth factors, TS, recombinant proteins, synthetic peptides, for the time and concentrations indicated in the Figures.
Cell staining with 4,6-diamino-2-phenylindole (DAPI). Cells were fixed with 4% formaldehyde in PBS for 5 minutes, washed with PBS, stained with 10 μg/ml DAPI (Sigma) for 2 minutes, washed with PBS, and visualized under UV light using a fluorescent microscope. About 300-400 cells were examined under the microscope to determine the percentage of apoptotic cells.
Cell DNA nick end labeling (TUNEL) (Gavrieli, Y., et al., J. Cell. Biol. 119: 493-501 (1992)) assay was performed using a kit purchased from Boehringer Mannheim as described by the manufacturer.
Protection against apoptosis of PC12 cells in serum-free medium containing a test agent (agent N)(e.g., protection induced by TS, TS fragments, NGF or other growth factors), was calculated by the formula: 100%-[(apoptosis(%) of cells kept in RPMI containing test agent N÷apoptosis (%) of cells kept in RPMI)×100%]. Testing the effect of wortmannin (Sigma) and LY294002 (Sigma) in inhibiting the neuroprotection of TS was performed following the protocol described by others (Yao and Cooper, Science, 267:2003-2006 (1995); D'Mello et al., J. Neurosci 17:1548-1560 (1997)). In brief, PC12 cells were switched from growth medium to RPMI without and with TS or various other growth factors. After 24 hr, wortmannin and LY294002 were added to the cultures. After another 24 hrs, cells were examined for apoptosis by the DAPI assay, as above.

N18 cells = experiment: Neurite outgrowth assay in N18 cells; type: cell-based; conditions: immobilized proteins coated at 500 μg/ml, 17 hours (FIG. 3A)
Protocol: FIG. 3A is a graph showing that neurite outgrowth in N18 cells is induced by immobilized laminin (Ln), immobilized TS and immobilized fragments of TS. Proteins were immobilized by incubating plates which contained wells filled with solutions of the proteins (protein concentration was 500 μg/ml) at 4° C. overnight. The protein solutions were removed and the plates were further incubated with 1% BSA at room temperature for one hour. N18 cells were cultured in the coated wells in serum-free RPMI-1640/0.2% BSA for 17 hours, and neurite outgrowth was measured by phase-contrast microscopy. […] Ln, laminin; TS, purified T. cruzi trans-sialidase; 7F, recombinant TS from clone 7F; 19Y, recombinant TS from clone 19Y; TS-F, recombinant fragment consisting of amino acid residues 33-666 of TS (SEQ ID NO:2); TS-CC-47, recombinant fragment consisting of amino acid residues 79-478 of TS (SEQ ID NO:2); TS-Cat-47, recombinant fragment consisting of amino acid residues 79-415 of TS (SEQ ID NO:2); BSA, bovine serum albumin.
96-well microtiter plates were coated overnight at 4° C. with the TS or peptides or fragments thereof, or with control proteins laminin (Ln) or bovine serum albumin (BSA) at 500 μg/ml. After removing the compounds, the plates were further incubated with 1% BSA for 1 hour at room temperature and immediately used as substratum for PC12 or N18 (Prasad, K. N., Biol Rev Camb Philos Soc, 66:431-451 (1991)) cells in serum-free RPMI/0.2% BSA. Neurite outgrowth was measured using a phase-contrast microscope 17 hours later.

Row | Molecule | trans-sialidase enzymatic activity (Trans-sialidase assay) | IL-6 secretion by T-24 cells [1] | IL-6 secretion by PBMC [2] | protection of PC12 cells from apoptosis induced by trophic factor withdrawal (PC12 cells) | neurite outgrowth in N18 cells (N18 cells)
1 | TS-H32 (protein, listed as Trypanosoma cruzi) KKKQVFSKIFYSEDDGKTWKFGEGRSAFGCSEAVALEWEGKLIINTRVDYRRRLVYESSDMGNTWLEAVGTLSRVWGPSPKSNQPGSQSSFTAVTIEGMRVMLFTHPLNFKGRWLRDRLNLWLTDNQRIYNVGQVSIGDENSAHSSVLYKDDKLYCLHEINSNEVYSLVFARLVGELRIIKSVLQSWKNWDSHLSSICTP | enzymatically-inactive | stimulating IL-6 secretion | stimulating IL-6 secretion |  | 
2 | TS-154: recombinant catalytically active trans-sialidase construct from clone 154 with 5 tandem repeat units (protein, listed as Trypanosoma cruzi) KKKQVFSKIFYSEDEGKTWKFGEGRSDFGCSEPVALEWEGKLIINTRVDYRRRLVYESSDMGNSWVEAVGTLSRVWGPSPKSNQPGSQSSFTAVTIEGMRVMLFTHPLNFKGRWLRDRLNLWLTDNQRIYNVGQVSIGDENSAYSSVLYKDDKLYCLHEINSNEVYSLVFARLVGELRIIKSVLQSWKNWDSHLSSICTP | enzymatically-active | as powerful as enzymatically-inactive TS-H32 in stimulating IL-6 secretion | as powerful as enzymatically-inactive TS-H32 in stimulating IL-6 secretion |  | 
3 | TS-F-47: recombinant TS fragment, amino acid residues 79-666 of SEQ ID NO:34 (protein, listed as Trypanosoma cruzi) GDARDWDILLAVGEVTKSTAGGKITASIKWGSPVSLKKFFPAEMEGMHTNQFLGGAGVAIVASNGNLVYPVQVTNKRKQVFSKIFYSEDDGKTWKFGKGRSDFGCSEPVALEWEGKLIINTRVDWKRRLVYESSDMEKPWVEAVGTVSRVWGPSPKSNQPGSQTSFTAVTIEGMRVMLFTHPLNFKGRCVRDRLNLWLTDNQRIYNVGQVSIGDENSAYSSVLYKDDKLYCLHEINTDEVYSLVFARLVGELRIIKSVLRSWKNWTATCPAFAPLLIQPLRRQRVVVVPLSPRLVLLAFCRQRLPKRMGGSYRCVNASTANAERVRNGLKFAGVGGGALWPVSQQGQNQRYRFANHAFTLVASVTIHEAPRAASPLLGASLDSSGGKKLLGLSYDEKHQWQPIYGSTPVTPTGSWETGKRYHLVLTMANKIGSVYIDGELLEGSGQTVVPDGRTPDISHFYVGGYKRSDMPTISHVTVNNVLLYNRRQLNTEEIRTLFLSQDLIGTEAHMDSSSDSSAHSTPSTPADSSAHSTPSTPVDSSAHSTPSTPADSSAHGTPSTPVDSSAHGTPSTPADSSAHGTPSTPVDS | enzymatically inactive |  |  | active | as effective as the native enzyme in stimulating neurite outgrowth; also recorded: active

Reference: patent US8114412B2, “T. cruzi-derived neurotrophic agents and methods of use therefor” (priority 1999, dated 2012)
